Molecular target: T1, His-tagged bacterially expressed MBP-POSH fusion protein (human, UniProt Q7Z6J0 1-888)
T1 sequence (looked up): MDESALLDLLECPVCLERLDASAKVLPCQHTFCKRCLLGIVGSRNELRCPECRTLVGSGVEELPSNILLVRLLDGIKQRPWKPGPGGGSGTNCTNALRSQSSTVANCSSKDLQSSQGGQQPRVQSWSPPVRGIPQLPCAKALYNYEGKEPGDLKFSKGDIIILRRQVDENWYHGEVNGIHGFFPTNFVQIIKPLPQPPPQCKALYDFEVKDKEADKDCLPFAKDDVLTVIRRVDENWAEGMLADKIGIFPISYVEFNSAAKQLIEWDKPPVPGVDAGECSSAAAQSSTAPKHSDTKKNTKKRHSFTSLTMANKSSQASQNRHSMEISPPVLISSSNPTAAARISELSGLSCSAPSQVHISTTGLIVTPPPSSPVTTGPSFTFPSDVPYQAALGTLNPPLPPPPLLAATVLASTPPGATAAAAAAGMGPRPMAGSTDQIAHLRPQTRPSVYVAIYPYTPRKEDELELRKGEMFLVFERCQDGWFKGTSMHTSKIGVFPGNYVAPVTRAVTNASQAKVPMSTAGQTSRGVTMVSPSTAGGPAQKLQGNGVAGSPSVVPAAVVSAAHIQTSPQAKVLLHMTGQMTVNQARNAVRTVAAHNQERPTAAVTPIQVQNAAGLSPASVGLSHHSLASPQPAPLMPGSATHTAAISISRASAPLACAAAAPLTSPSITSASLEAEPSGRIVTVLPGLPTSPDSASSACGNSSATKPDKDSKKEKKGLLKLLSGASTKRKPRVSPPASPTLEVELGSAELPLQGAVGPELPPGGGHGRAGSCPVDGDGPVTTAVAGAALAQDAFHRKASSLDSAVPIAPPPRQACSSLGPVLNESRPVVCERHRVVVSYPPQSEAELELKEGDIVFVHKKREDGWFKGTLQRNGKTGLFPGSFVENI
Assay: co-IP

B1: truncated Herp (tHerp; amino acids 1-272) with FLAG tag (domain or fragment, UniProt Q15011 1-272, looked up)
chain: MESETEPEPVTLLVKSPNQRHRDLELSGDRGWSVGHLKAHLSRVYPERPRPEDQRLIYSGKLLLDHQCLRDLLPKQEKRHVLHLVCNVKSPSKMPEINAKVAESTEEPAGSNRGQYPEDSSSDGLRQREVLRNLSSPGWENISRPEAAQQAFQGLGPGFSGYTPYGWLQLSWFQQIYARQYYMQYLAATAASGAFVPPPSAQEIPVVSAPAPAPIHNQFPAENQPANQNAAPQVVVNPGANQNLRMNAQGGPIVEEDDEINRDWLDWTYSAA
- binding result: binds

— article PMC2064109 (The Journal of Cell Biology, 2007)
